This note sets out measurements from patent US20210179726A1 (DINGFU BIOTARGET, published 2021).

For test [1], the target named is T1, hGITR-EGFP on HEK293 cells (human, UniProt Q9Y5U5 26-241).
T1 construct: EGFP fusion expressed on transfected HEK293 cells; also called human GITR
T1 sequence (looked up): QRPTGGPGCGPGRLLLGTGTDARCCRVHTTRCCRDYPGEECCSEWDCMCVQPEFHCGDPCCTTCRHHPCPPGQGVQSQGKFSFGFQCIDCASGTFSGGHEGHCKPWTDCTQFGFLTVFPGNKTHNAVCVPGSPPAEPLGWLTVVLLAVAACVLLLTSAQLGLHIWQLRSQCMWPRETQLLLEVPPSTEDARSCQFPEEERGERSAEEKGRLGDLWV
Description: FACS on hGITR-EGFP HEK293 cells. The procedure:
(§1) The hCD137-EGFP, hOX40-EGFP and hGITR-EGFP cells as described in Example 1 were washed twice in PBS, 10 μg/ml of each chimeric antibody as prepared in Example 3 (m2E7, m2B8, m4H3, m3E7, m1A8, m4G1, m2G3, m2F11 and m3B8) was added to each type of cells and incubated at 4° C. for 30 min. Then it was washed twice with PBS, anti-human Ig-APC (Jackson ImmunoResearch Laboratories, Cat #109-135-098) was added and were incubated at 4° C. for 30 min, washed twice with PBS and resuspended in 300 μl PBS. In FIG. 2, NC represents negative control (PBS), a-hlg-APC represents secondary antibody only, the other panels represent results obtained with each of the corresponding clone, respectively.

For test [2], the target named is T2, hOX40-EGFP on HEK293 cells (human, UniProt P43489 29-277).
T2 construct: EGFP fusion expressed on transfected HEK293 cells; also called human OX40
T2 sequence (looked up): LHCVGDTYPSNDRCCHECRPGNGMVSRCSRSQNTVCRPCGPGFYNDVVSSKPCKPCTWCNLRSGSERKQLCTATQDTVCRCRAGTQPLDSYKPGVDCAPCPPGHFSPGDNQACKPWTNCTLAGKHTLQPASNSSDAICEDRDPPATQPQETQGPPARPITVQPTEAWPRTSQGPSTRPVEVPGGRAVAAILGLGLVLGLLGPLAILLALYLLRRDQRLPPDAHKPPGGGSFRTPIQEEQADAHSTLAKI
Nature of the test: FACS on hOX40-EGFP HEK293 cells. As to the method: as §1

Test [3] addresses T3, hCD137-EGFP on HEK293 cells (human, UniProt Q07011 24-255).
T3 construct: EGFP fusion expressed on transfected HEK293 cells; also called human CD137
Nature of the test: FACS on hCD137-EGFP HEK293 cells. The procedure:
as §1

The target in test [4] is T4, hCD27-EGFP on HEK293 cells (human, UniProt P26842 20-260).
T4 construct: EGFP fusion expressed on transfected HEK293 cells; also called CD27-EGFP cells; cell surface CD27
T4 sequence (looked up): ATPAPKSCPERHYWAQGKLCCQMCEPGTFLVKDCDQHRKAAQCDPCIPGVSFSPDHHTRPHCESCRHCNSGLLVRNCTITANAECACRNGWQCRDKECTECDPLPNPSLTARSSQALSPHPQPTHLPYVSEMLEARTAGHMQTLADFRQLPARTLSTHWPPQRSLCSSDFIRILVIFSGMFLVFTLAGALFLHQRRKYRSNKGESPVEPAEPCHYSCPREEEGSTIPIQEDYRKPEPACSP
Description: FACS on CD27-EGFP HEK293 cells, 10 µg/ml antibody. The procedure: 5×10⁵ CD27-EGFP cells prepared in Example 1 were washed twice in PBS, 10 μg/ml of each chimeric antibody prepared in Example 3 (m2E7, m2B8, m4H3, m3E7, m1A8, m4G1, m2G3, m2F11 and m3B8) was added to the cells and incubated at 4° C. for 30 min. Then it was washed twice in PBS, anti-human Ig-APC (Jackson ImmunoResearch Laboratories, Cat #109-135-098) was added, incubated at 4° C. for 30 min, washed twice with PBS and resuspended in 300 μl PBS. In FIG. 1, NC represents negative control (PBS), a-hlg-APC represents secondary antibody only, the other panels represent results obtained with each of the corresponding clone, respectively.

In test [5] the target is T5, hCD27-muFc (human; mouse, UniProt P26842 20-192).
T5 construct: range 1-192; Secreted from HEK293, Protein A purified; not shown: mouse IgG1-Fc (muFc), residues 98 to 324 of UniProt P01868
T5 sequence (looked up): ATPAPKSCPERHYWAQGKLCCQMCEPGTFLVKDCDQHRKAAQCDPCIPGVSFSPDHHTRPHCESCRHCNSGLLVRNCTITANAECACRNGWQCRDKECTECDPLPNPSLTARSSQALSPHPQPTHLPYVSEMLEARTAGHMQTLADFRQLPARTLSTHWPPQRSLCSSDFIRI
Description: ELISA, plate coated with hCD27-muFc, Test 1. The procedure: (§2) The ELISA plate was coated with 2 μg/ml hCD27-muFc, 100 μl/well and incubated at 4° C. overnight. Then it was washed once with 10 mM, pH 7.4 PBS/Tween (0.05%), blocked with PBST containing 5% skimmed milk powder and incubated at 37° C. for 2 h. After washing the plate for 4 times, the humanized antibodies were added and incubated at 37° C. for 40 min, then it was washed for 4 times. Anti-human IgG-HRP-conjugated secondary antibody (Sigma, Cat #A0170-1M) was added and incubated at 37° C. for 40 min. After washing, the plate was developed with TMB substrate and spectrophotometric analysis was performed at OD₄₅₀. In FIGS. 5A-5B, each curve represents the binding result obtained for one of the humanized antibodies. From the results, it can be seen that all these humanized antibodies could bind to human CD27.
Background: In an ELISA, binding on a coated surface is turned into a signal by an enzyme label.

Test [6] has as its target T5, hCD27-muFc. Nature of the test: ELISA, plate coated with hCD27-muFc, Test 2. The procedure:
as §2

The target in test [7] is T5, hCD27-muFc. Description: BLI (Octet K2), antibody on Protein A biosensor, hCD27-muFc in solution. The procedure: Using the BLI method, each humanized antibody was immobilized on a Protein A biosensor at a concentration of 10 μg/ml, while hCD27-muFc was subjected to 2-fold serial dilution, starting from 100 nM, to obtain 5 gradient dilutions for each antibody. The reaction plate was placed on the Octet K2 instrument. The parameters were set to Baseline 70 s, Association 80 s, Dissociation 300 s, Baseline 260 s, Loading 40 s, and Custom 5 s.

The target in test [8] is T2, hOX40-EGFP on HEK293 cells. Description: FACS dot plot on OX40-EGFP HEK293 cells, anti-human Ig-APC secondary. As to the method: as §1
The target in test [9] is T3, hCD137-EGFP on HEK293 cells. Nature of the test: FACS dot plot on CD137-EGFP HEK293 cells, anti-human Ig-APC secondary. As to the method:
as §1

Test [10] deals with T4, hCD27-EGFP on HEK293 cells. Nature of the test: FACS titration on CD27-EGFP HEK293 cells, 8 three-fold dilutions from 20 µg/ml, anti-human Ig-APC secondary, MFI; table drawn under the plot, unit from the x axis; no upper plateau reached. As to the method:
Based on the above results of ELISA, 7 humanized antibodies were selected to examine their affinities to cell surface CD27. Briefly, 5×10⁵ CD27-EGFP cells prepared in Example 1 were washed twice in PBS, each of the humanized antibodies (d16647, d12996, d9419, 14822, 9424, d14822, d12674) was added. The antibodies were subjected to 3-fold serial dilution, starting from 20 μg/ml, to obtain 8 gradient dilutions for each antibody. The antibodies and the cells were incubated at 4° C. for 30 min. Then, it was washed twice with PBS, anti-human Ig-APC (Jackson ImmunoResearch Laboratories, Cat #109-135-098) was added, and incubated at 4° C. for 30 min, washed twice with PBS and resuspended in 300 μl PBS. Flow cytometry was then performed, and the results are shown in FIG. 6. m2F11 was used as a control.

T3 sequence (Q07011 24-255): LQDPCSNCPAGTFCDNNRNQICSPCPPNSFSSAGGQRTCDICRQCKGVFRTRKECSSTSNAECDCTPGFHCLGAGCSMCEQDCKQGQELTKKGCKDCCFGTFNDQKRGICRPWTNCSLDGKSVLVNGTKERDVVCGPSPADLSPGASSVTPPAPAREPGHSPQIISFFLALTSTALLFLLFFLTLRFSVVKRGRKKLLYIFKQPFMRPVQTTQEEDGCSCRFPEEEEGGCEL

B1: m3E7 (antibody, human IgG1, V domains shown)
VH: QIQLVQSGPELKKPGETVKISCKASGYTFTTYGMSWVKQAPGKGLHWMGWINTHSGAPTYVDDFKGRFAFSLETSASTAFLQINNLINEDTATYFCAREGDALDYWGQGTSVTVSS
VL: DIVMTQTTAIMSAFPGEKVTMTCSASSSVSYMHWYQQKSGTSPKRWIYDTSKLASGVPVRFSGSGSGTSYSLTISNMEAEDAATYYCQQWSRNPPFTFGAGTKLELK
notes: Chimeric antibody: mouse VH/VL on human IgG1 / human kappa constant regions; also called clone 3E7; not shown: human IgG1 constant region, UniProt P01857
B1: the binding result in [1] is on record as “no binding (tested: 10 µg/ml)”; in test [2], “no binding (tested: 10 µg/ml)”; in test [3], “no binding (tested: 10 µg/ml)”; in test [4] it was “binds”.

B2: m2F11 (antibody, human IgG1, V domains shown)
VH: EVQLQESGGDLVKPGGSLKLSCAASGFTFSSYAMSWVRQTPEKRLEWVAIIGDGDTYTYYPDSVKGRFTVSRDNAKNNLYLQMSHLKSEDTAMYYCVRTRGGPFDYWGQGTTLTVSS
VL: DIVLTQTPALMSASPGEKVTMTCSASSSVGSMHWYQQKSGTSPKRWIYDTSKLASGVPARFSGSGSGTSYSLTISSMEAEDAATYYCQQWSSIPPTFGAGTTLELK
notes: Chimeric antibody: mouse VH/VL on human IgG1 / human kappa constant regions; Parent of the humanized antibodies; also called clone 2F11; not shown: human IgG1 constant region, UniProt P01857
A word on the EC50: it is the concentration giving half of the maximal effect. Read a high EC50 as lower potency in that assay. By Kd is commonly meant a measure of binding affinity in units of concentration. A lower Kd goes with tighter binding. As a reminder, the koff is the rate constant with which the complex falls apart. For orientation: kon means the second-order rate constant of association. B2: the binding result in [1], in test [8] and in test [9] was “no binding (tested: 10 µg/ml)” each time. Further, the concentration for a half-maximal effect (EC50) in test [5] is 0.0315 µg/mL; in test [6], 0.0279 µg/mL. This molecule also yielded a dissociation constant Kd in test [7] of 0.835 nM. Further, the koff in [7] came to 0.000108 s⁻¹. In test [7], this molecule registered a kon of 130000 M⁻¹ s⁻¹. In addition, in [10], the LogEC50 was 0.417 Log10(ug/ml).
